The data set in a line: yeast display, Sf9 membrane polyspecificity reagent, FACS + sequencing; frameworks hold sequencing errors. The method in brief: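 Nanobodies came from a synthetic yeast display library in Saccharomyces cerevisiae BJ5465, induced with galactose for 36–48 hours and stained for 1 hour at 4 °C with 10% biotinylated, detergent-solubilized Sf9 membrane reagent. Cells were enriched on streptavidin microbeads and then FACS-sorted, with low and high (top ~1%) gates set on anti-HA fluorescence for expression and streptavidin fluorescence for reagent binding. Each polyreactivity label reflects the gate a clone came from. Genes were amplified by colony PCR, sequenced by MiSeq 2 × 250 and filtered by CDR length.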
Regarding “QVQLVESGGGLVQAGGSLRLSCAASGRTFNTYTMGWYRQAPGKERELVAAITGTGGSTFYADSVKGRFTISRDNAKNTVYLQMNSLKPEDTAVYYCNADLEGTIGVYTDGFDSDYWGQGTQVTVSS”, the “polyreactivity (PSR sort gate)” value was “low polyreactivity”.

Regarding “QVQLVESGGGVVQAGGSLLLSCAASGRIFWYYAMGWYRQAHGKERELVATITRGGNTYFADSVKGRFTISRDNAKNTVYLQMNSLKPEDNAVYYCAASQRYSVIYYGFSEYDYWGQGTQVTVSS”, the “polyreactivity (PSR sort gate)” value is “high polyreactivity”.

Take “QVQLVESGGGLVQAGGSLRLSCAASGSIFANNAMGWYRQAPGKERELVAAIDWSAASTYYADSVKGRFTISRDNAKNTVYLQMNSLKPEDTAVYYCNARALGGGHIGFNHYVYGFGYWGQGTQVTVSS”: the “polyreactivity (PSR sort gate)” value is reported as “low polyreactivity”.

With “QVQLVESGGGLVQAGGSLRLICAASGFISSENAMGWYRQAPGKERELVAAISSGGSTNYADSVKGRFTISRDNAKYTVYLQMYSLKPEDTAVYYCNAEAIQAVYYAYEYWGQGTQVTVSS”, the “polyreactivity (PSR sort gate)” value is recorded as “low polyreactivity”.

For “QVQLVESGGGLVQAGGSLRLSCAASGFTFYWYAMGWYRQAPGKERELVAAITIGGSTYYADSVKGRFTISRDNAKNTVYLQMNSLKPEDTAVYYCNVYGYGTEYDYWGQGTQVTVSS”, the “polyreactivity (PSR sort gate)” value was “high polyreactivity”.

As for “PVQLQESGGGLVQAGGSLRLSCAASGNIFDADIMGWYRQAPGKERELVACIADGGSTNYADSVKGRFTISRDNAKNTVYLQMNSLKPEDTAVYYCAAIAYPYIPNCFDYDSDYFFRGQGTQVTVSS”, the “polyreactivity (PSR sort gate)” value is reported as “low polyreactivity”.

Regarding “QVQLVESGGGLVQAGGSLRLSCAASGLTITKNVMGWYRQAPGKERELVAVISRSGGSTYYADSVKGRFTISRDNAKNTVYLQMNSLKPEDTAVYYCNVKGPGPSRGNYWGQGTQVTVSS”, the “polyreactivity (PSR sort gate)” value is given as “low polyreactivity”.

On to “QVQLVESGGGLVQAGGSLRLSCAASGSIVNYNDMGCYRQAPGKERELVAAIDSSGTSTYYADSVKGRFTISRDNAKNTVYLQMNSLKPEDTAVYYCNADSSLGFGYWGQGTQVTVSS”, for which the “polyreactivity (PSR sort gate)” value was “low polyreactivity”.

Take “QVHLVESGGGLVQAGGSLRLSCAASGRIFSVYAMGWYRQAPGKERELVAVITTSGGSTYYADSVKGRFTISRGNAKNTVYLQMNSLKPEDTAVYYCNAEPWSYAIGSYEYWGQGTQVTVSS”: the “polyreactivity (PSR sort gate)” value was “high polyreactivity”.

On to “QVQLVESGGGLVQAGGSLRLRCAASGSTFTYNTMGWYRQAPGKERELVAAINTTGNTYADSVKGRFTISRDNAKNTVYLQMNSLKPEDTAVYYCNTDYVPRRHDMDYWGQGTQVTLSS”, for which the “polyreactivity (PSR sort gate)” value was “low polyreactivity”.

Take “QVQLVESGGGLVQAGGSLRLSCAASGITFGSYAMGWYRHAPGKERELVAAIRWRGGNTYYADSVKGRFTISRDNAKNTVYLQMNSLKPEDTAVYSCAARRYGYRYDQPYYNDYWGQGTQVTVSS”: the “polyreactivity (PSR sort gate)” value is reported as “low polyreactivity”.

Turning to “QVQLVESGGGLVQAGGSLRLSCAASGRTFYRNAMGWYRQARGKERELVAAISSRGGSTYYADSVKGRFTISRDNAKNTVYLQMNSLKPEDTAVYYCAARYLYLWADYEYGYWGQGTQVTVSS”, the “polyreactivity (PSR sort gate)” value is “high polyreactivity”.

“QVQLVESGGGLVQAGGSLRLSCAASGRTFRWYAMGWYRQAPGKERELLASITWSGGSTYYADSVKGRFTISRDNAKNTVYLQMNSLKPEDTAVYYCAAVGRQSNYYVDYDYWGQGTQVTVSS”: the “polyreactivity (PSR sort gate)” value was “high polyreactivity”.

“QVQLVESGGGLVQAGGSLRLSCAASGITFPSYVMGWYRQAPGKEREFVAAITGSAGSTYYADSVKGRFTISRDNAKNTVYLQMNSLKPEDTAVYYCAARVRYVNPKYYYWGQGTQVTVSS”: the “polyreactivity (PSR sort gate)” value was “high polyreactivity”.

Take “QVQLVESGGGLVQAGGSLRLSCAEYDMGWYRQAPGKERELVATITARGGSTYADSVKGRFTISRDNAKNTVYLQMNSLKPEDTAVYYCAADRFFWLRSYPRYYYWGQGTQVTVSS”: the “polyreactivity (PSR sort gate)” value is “low polyreactivity”.

“QVQLVESGGGLVQAGGSLRLSCAASGSTFQYYAMGWYRQAPGKERELVAAIRTGGSTNYADSVKGRFTISRDNAKNTFYLQMNSLKPEDTAVYYCAKRSLRSYRMNYWGQGTQVTVSS”: the “polyreactivity (PSR sort gate)” value was “high polyreactivity”.

As to “QVQLVESGGGLVQAGGSLRLSCAASGSIFGFNAMGWYRQAPGKERELVAAINNGGSTNYADSVKGRFTISRDNAKNTVYLQMNSLKPEDTAVYYCAAVGGWRWSNQDYRYPYYYWGQGTQVTVSS”, the “polyreactivity (PSR sort gate)” value was “high polyreactivity”.

In the case of “QVKLVESGGGLVQAGGSLRISCAASGLTFPKYAMGWYRQAPGKERELVAAITQRGGSTYYADSVKVRFTISRDNAKNTVYLEMYWLKREDTAVYYCNARRRDYNNRREFDYWGQGSQVTVSS”, the “polyreactivity (PSR sort gate)” value was “high polyreactivity”.

Consider “QVQLVESGGGLVQAGGSLRLSCAASGSTFWRYAMGWYRQAPGKERELVAGITWNGGSTYYADSVKGRFTISRDNAKNTVYLQMNCLIPEDTAVYYCAARRSWGYIYRLGYGMDYWGQGTQVTVSS”, for which the “polyreactivity (PSR sort gate)” value is on record as “high polyreactivity”.

With “QVQLVESGGGLVQAGGSLRLSCAASGSTLYRNAMGWYRQAPGKEREFVAAISWSGGSTYYADSVKGRFTISRDNAKNTVYLQMNSLKPEDTAVYYCNARGPTVYETHNYWGQGTQVTVSS”, the “polyreactivity (PSR sort gate)” value is “low polyreactivity”.

Regarding “QVQLVESGGGLVQAGGRLRLSCAASGLTFYRNAMGWYRQAPGKERELVAAITTSGARTYYADSVKGRFTISRDNAKNTVYLRMNSLKPDVTAVYYCNAPVRRDVAYGYWGQGTQVTVSS”, the “polyreactivity (PSR sort gate)” value is on record as “high polyreactivity”.

As to “QVQLVESGGGLVQAGGSLRLSCAASGSIFYLYAMGWYRQAPGKERELVATISTGSGRTYYADSVKGRFTISRDNAKNTVYLQMNSLKPEDTAVYYCAASRTLRKHRYEYWGQGTEVTVSS”, the “polyreactivity (PSR sort gate)” value is “high polyreactivity”.

Regarding “QVQLVESGGCLVQAGGSRRLSCAASGLTIYHYAMGWYRQATGKERELVAAITNGYSTYYADSVKGRFTISLDNAMNTVYLQMNSLKPEDTAVYSCNADQPGDQHSGYWGQGTQVTVSS”, the “polyreactivity (PSR sort gate)” value was “low polyreactivity”.

Turning to “QVQLVESGGGLVQAGGSLSLSCAASGGIFAANAMGWYRQAPGKERELVAAITRRGGSTTYADSVKGRFTISRDNAKNTVYLQMNRLKREDTAVYYCNTVYYRFYIELYFSSYDYWGQGTQVTVSS”, the “polyreactivity (PSR sort gate)” value was “high polyreactivity”.

Consider “QVQLQESGGGLVQAGGSLPLSCAASGTISVHATMGWYRQATGKERELVAGITDGANTYYADSVKGRFTISRDNSQNTVYLQMNSLTPEDTAVYYCAAYYGTVVHFTYWGQGTQVTVSS”, for which the “polyreactivity (PSR sort gate)” value was “low polyreactivity”.

As to “QVQLVESGGGLVQAGGSLRLSCAASGSTFRYYSMGWYRQAPGKERELVAVISKSGARTYYADSVKGRFTISRDNAKNTVYLQMNSLQPEETSVYYCNAVFKLDSHYAMCYWGQGTQVTVSS”, the “polyreactivity (PSR sort gate)” value is “high polyreactivity”.

Consider “QVQLVESVGGLVQAGGSRRLTSAASGRTFREYAMGWYRQAPWKERELVAAISDSGDSTYYADSVKGRFTISRDNAKNTVYLQMNSLKPEDTAVYYCAADYYDYEYDYWGQGTQVTVSS”, for which the “polyreactivity (PSR sort gate)” value is on record as “low polyreactivity”.

Turning to “QVQLVESGGGLVQAGGSLRLSCDASGIIFASYAMGWYRQAPGKERELVAAISGGGSTYYADSEKGRFTISRDNAKNTVYLQMNSLKPVDTAVYYCNAEAYYRWLTNIWYSDFDYWGLGTQVTVSS”, the “polyreactivity (PSR sort gate)” value was “low polyreactivity”.

In the case of “QVQLVESGGGLVQAGGSLRLSCAASGNIFWSNAMGWYRQAPGKERELVAGITSSTGSTYYADSVKGRFTISRDNAKNTVYLQMNSLKPEDTAVYSCAARYRYYPVTTRGYYWGQGTQVTVSS”, the “polyreactivity (PSR sort gate)” value is “high polyreactivity”.

Take “QVQLVESGGGLFQAGGSLRLSCAASGIIFTSYAMGWYRQAPGKESEFVAAITRSGSRTYYADSVKGRFTISRDNAKNTVYLQMNRLKPEDTAVYYCAARTYHDSSDSYAGGYWGQGTQVTVSS”: the “polyreactivity (PSR sort gate)” value is given as “low polyreactivity”.

Source of the values: the nanobody polyreactivity screen of Harvey et al. (2022).
